According to article PMC6995525, “Structure of the PUB Domain from Ubiquitin Regulatory X Domain Protein 1 (UBXD1) and Its Interaction with the p97 AAA+ ATPase” (Biomolecules, 2019):
No end group written: not given here.

B2: UBXD1-PUB (150–264) (domain or fragment, UniProt Q9BZV1 150-264, looked up)
chain: STDPVAASIMKIYTFNKDQDRVKLGVDTIAKYLDNIHLHPEEEKYRKIKLQNKVFQERINCLEGTHEFFEAIGFQKVLLPAQDQEDPEEFYVLSETTLAQPQSLERHKEQLLAAE
notes: UBXD1 (ubiquitin regulatory X domain protein 1), PUB domain construct, residues 150-264; Cloned into pET28a (NdeI/HindIII); a few vector residues probably remain after thrombin cleavage (surmised); Theoretical MW 13.80 kDa; 15N- or 13C,15N-labelled for NMR; also called UBXD1-PUB wt; wild type (wt); source: E. coli Rosetta2, purified (Ni-NTA, thrombin cleavage of the tag, SEC); not shown: His6, …

What was measured:
Settings in all cases: both partners purified
UBXD1-PUB (150–264) [1] = target: B2; assay: ITC; UBXD1-PUB (100 µM) titrated with 1 mM p97-C10 peptide; 50 mM NaKPi pH 6.5, 25 °C; single-site model; triplicate, parameters averaged
full-length p97 = target: T1, full-length p97 (UniProt P55072 1-806); assay: fluorescence polarisation; fluorescence anisotropy of UBXD1-PUB wt with full length p97; which partner was labeled and titrated is not told
T1 construct: AAA+ ATPase p97 / valosin-containing protein (VCP) / Cdc48, full length; Cloning, tags and purification of p97-fl are not described; the methods say only that 'all proteins were expressed in Escherichia coli Rosetta2' and purified by Ni-NTA and SEC after thrombin cleavage; also called p97-fl; VCP
T1 sequence (P55072 whole entry): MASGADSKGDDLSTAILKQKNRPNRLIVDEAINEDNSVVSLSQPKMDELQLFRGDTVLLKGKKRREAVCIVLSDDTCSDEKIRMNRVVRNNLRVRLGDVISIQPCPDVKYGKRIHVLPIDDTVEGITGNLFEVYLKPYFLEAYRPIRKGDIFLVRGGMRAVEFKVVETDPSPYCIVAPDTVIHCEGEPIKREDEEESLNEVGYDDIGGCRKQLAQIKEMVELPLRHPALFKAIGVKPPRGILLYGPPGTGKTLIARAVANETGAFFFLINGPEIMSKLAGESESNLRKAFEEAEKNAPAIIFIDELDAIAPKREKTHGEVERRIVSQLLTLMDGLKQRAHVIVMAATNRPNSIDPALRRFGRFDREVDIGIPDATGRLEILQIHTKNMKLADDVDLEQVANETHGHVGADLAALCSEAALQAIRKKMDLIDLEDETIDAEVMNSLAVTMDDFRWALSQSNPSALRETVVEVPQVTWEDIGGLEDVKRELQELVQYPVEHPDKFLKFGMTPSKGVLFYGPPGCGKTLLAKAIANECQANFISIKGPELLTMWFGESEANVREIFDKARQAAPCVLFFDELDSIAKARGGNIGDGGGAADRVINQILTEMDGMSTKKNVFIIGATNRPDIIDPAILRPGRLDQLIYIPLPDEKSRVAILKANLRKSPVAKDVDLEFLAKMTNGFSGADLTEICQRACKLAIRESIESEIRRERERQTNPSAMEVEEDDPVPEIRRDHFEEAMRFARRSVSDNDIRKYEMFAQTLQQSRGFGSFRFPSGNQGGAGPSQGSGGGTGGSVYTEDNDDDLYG

[2] = target: T2, UBXD1-PUB (150–264) Y181F (UniProt Q9BZV1 150-264, Y181F); assay: fluorescence polarisation; fluorescence anisotropy; PUB constructs titrated to 100 nM 5,6-FAM labeled p97-C10 peptide; 50 mM NaKPi pH 6.5, 25 °C; triplicate; one-site quadratic fit
T2 construct: UBXD1 PUB domain construct, residues 150-264, point mutant; source: E. coli Rosetta2, purified (Ni-NTA, thrombin cleavage of the tag, SEC); not shown: His6, N-terminal, cleaved
T2 sequence (looked up): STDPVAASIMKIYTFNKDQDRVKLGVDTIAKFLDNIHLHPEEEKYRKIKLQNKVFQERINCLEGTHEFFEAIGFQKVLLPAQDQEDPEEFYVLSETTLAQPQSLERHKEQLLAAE

[3] = target: T3, UBXD1-PUB (150–264) N184D (UniProt Q9BZV1 150-264, N184D); assay: as above
T3 construct: UBXD1 PUB domain construct, residues 150-264, point mutant; source: E. coli Rosetta2, purified (Ni-NTA, thrombin cleavage of the tag, SEC); not shown: His6, N-terminal, cleaved
T3 sequence (looked up): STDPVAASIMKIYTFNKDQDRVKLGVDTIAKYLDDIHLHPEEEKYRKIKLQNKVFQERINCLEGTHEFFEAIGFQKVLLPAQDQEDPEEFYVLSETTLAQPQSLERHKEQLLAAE

[4] = target: T4, UBXD1-PUB (150–264) N184A (UniProt Q9BZV1 150-264, N184A); assay: as above
T4 construct: UBXD1 PUB domain construct, residues 150-264, point mutant; source: E. coli Rosetta2, purified (Ni-NTA, thrombin cleavage of the tag, SEC); not shown: His6, N-terminal, cleaved
T4 sequence (looked up): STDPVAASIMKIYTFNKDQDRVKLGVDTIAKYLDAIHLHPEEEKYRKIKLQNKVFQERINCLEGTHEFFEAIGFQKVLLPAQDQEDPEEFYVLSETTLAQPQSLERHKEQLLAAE

[5] = target: T5, UBXD1-PUB (150–264) E206R (UniProt Q9BZV1 150-264, E206R); assay: as above
T5 construct: UBXD1 PUB domain construct, residues 150-264, point mutant; source: E. coli Rosetta2, purified (Ni-NTA, thrombin cleavage of the tag, SEC); not shown: His6, N-terminal, cleaved
T5 sequence (looked up): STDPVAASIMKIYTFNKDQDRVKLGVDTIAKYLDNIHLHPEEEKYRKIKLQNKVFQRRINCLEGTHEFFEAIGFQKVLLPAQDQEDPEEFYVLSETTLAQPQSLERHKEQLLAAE

[6] = target: T6, UBXD1-PUB (150–264) R207E (UniProt Q9BZV1 150-264, R207E); assay: as above
T6 construct: UBXD1 PUB domain construct, residues 150-264, point mutant; source: E. coli Rosetta2, purified (Ni-NTA, thrombin cleavage of the tag, SEC); not shown: His6, N-terminal, cleaved
T6 sequence (looked up): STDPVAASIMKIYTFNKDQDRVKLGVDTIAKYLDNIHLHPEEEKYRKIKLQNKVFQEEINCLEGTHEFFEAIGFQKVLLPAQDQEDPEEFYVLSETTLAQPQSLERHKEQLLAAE

[7] = target: T7, UBXD1-PUB (150–264) Y181A (UniProt Q9BZV1 150-264, Y181A); assay: as above
T7 construct: UBXD1 PUB domain construct, residues 150-264, point mutant; source: E. coli Rosetta2, purified (Ni-NTA, thrombin cleavage of the tag, SEC); not shown: His6, N-terminal, cleaved
T7 sequence (looked up): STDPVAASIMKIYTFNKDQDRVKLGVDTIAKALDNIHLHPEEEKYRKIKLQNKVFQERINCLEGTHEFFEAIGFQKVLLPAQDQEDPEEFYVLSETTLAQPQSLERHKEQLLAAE

UBXD1-PUB (150–264) [8] = target: B2; assay: as above
[9] = target: T8, UBXD1-PUB (150–264) Y194F (UniProt Q9BZV1 150-264, Y194F); assay: as above
T8 construct: UBXD1 PUB domain construct, residues 150-264, point mutant; source: E. coli Rosetta2, purified (Ni-NTA, thrombin cleavage of the tag, SEC); not shown: His6, N-terminal, cleaved
T8 sequence (looked up): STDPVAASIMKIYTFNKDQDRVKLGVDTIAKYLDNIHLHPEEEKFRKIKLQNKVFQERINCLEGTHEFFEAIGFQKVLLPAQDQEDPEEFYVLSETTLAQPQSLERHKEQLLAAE

[10] = target: T9, UBXD1-PUB (150–264) Q200A (UniProt Q9BZV1 150-264, Q200A); assay: as above
T9 construct: UBXD1 PUB domain construct, residues 150-264, point mutant; source: E. coli Rosetta2, purified (Ni-NTA, thrombin cleavage of the tag, SEC); not shown: His6, N-terminal, cleaved
T9 sequence (looked up): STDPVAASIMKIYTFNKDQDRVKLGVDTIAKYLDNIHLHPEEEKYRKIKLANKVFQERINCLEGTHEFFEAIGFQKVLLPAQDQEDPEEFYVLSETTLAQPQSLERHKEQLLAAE

[11] = target: T10, UBXD1-PUB (150–264) N201A (UniProt Q9BZV1 150-264, N201A); assay: as above
T10 construct: UBXD1 PUB domain construct, residues 150-264, point mutant; source: E. coli Rosetta2, purified (Ni-NTA, thrombin cleavage of the tag, SEC); not shown: His6, N-terminal, cleaved
T10 sequence (looked up): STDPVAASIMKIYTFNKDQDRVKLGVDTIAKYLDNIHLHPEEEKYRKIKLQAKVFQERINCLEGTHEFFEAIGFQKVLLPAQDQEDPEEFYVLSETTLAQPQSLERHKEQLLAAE

[12] = target: T11, UBXD1-PUB (150–264) N201D (UniProt Q9BZV1 150-264, N201D); assay: as above
T11 construct: UBXD1 PUB domain construct, residues 150-264, point mutant; source: E. coli Rosetta2, purified (Ni-NTA, thrombin cleavage of the tag, SEC); not shown: His6, N-terminal, cleaved
T11 sequence (looked up): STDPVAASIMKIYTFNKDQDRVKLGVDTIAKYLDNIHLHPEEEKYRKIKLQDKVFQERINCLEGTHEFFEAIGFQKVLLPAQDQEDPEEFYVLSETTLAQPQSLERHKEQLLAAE

[13] = target: T12, UBXD1-PUB (150–264) Y194A (UniProt Q9BZV1 150-264, Y194A); assay: as above
T12 construct: UBXD1 PUB domain construct, residues 150-264, point mutant; source: E. coli Rosetta2, purified (Ni-NTA, thrombin cleavage of the tag, SEC); not shown: His6, N-terminal, cleaved
T12 sequence (looked up): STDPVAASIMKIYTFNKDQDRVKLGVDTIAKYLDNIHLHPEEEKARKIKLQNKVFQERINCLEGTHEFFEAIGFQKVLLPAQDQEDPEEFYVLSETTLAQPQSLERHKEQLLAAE

[14] = target: T13, UBXD1-PUB (150–264) K198E (UniProt Q9BZV1 150-264, K198E); assay: as above
T13 construct: UBXD1 PUB domain construct, residues 150-264, point mutant; source: E. coli Rosetta2, purified (Ni-NTA, thrombin cleavage of the tag, SEC); not shown: His6, N-terminal, cleaved
T13 sequence (looked up): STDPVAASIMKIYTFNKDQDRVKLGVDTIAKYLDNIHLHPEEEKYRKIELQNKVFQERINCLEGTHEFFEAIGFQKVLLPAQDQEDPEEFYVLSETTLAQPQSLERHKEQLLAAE

[15] = target: T14, UBXD1-PUB (150–264) K193E (UniProt Q9BZV1 150-264, K193E); assay: as above
T14 construct: UBXD1 PUB domain construct, residues 150-264, point mutant; source: E. coli Rosetta2, purified (Ni-NTA, thrombin cleavage of the tag, SEC); not shown: His6, N-terminal, cleaved
T14 sequence (looked up): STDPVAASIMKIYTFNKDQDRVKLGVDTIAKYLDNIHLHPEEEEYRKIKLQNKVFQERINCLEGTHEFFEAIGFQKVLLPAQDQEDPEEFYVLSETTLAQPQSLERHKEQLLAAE

[16] = target: T15, UBXD1-PUB (150–264) V203A (UniProt Q9BZV1 150-264, V203A); assay: as above
T15 construct: UBXD1 PUB domain construct, residues 150-264, point mutant; source: E. coli Rosetta2, purified (Ni-NTA, thrombin cleavage of the tag, SEC); not shown: His6, N-terminal, cleaved
T15 sequence (looked up): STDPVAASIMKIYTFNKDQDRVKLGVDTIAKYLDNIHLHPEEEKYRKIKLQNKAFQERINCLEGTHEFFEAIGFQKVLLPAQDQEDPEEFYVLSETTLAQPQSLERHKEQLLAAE

B1: p97-C10 peptide (unlabeled) (peptide)
peptide: TEDNDDDLYG
notes: also called p97-PIM; p97-C10 PIM peptide; source: synthetic peptide, bought: Caslo ApS (Denmark)
Kd (UBXD1-PUB (150–264) [1]): 15 ± 5 µM | dH (UBXD1-PUB (150–264) [1]): -3.25 ± 0.483 kcal/mol | stoichiometry N (UBXD1-PUB (150–264) [1]): 1.1 ± 0.2

B2
Kd (full-length p97): 8.4 µM

B3: 5,6-FAM-labeled p97-C10 peptide (peptide)
peptide: TEDNDDDLYG
modifications: also: 5,6-FAM label, position not given here
notes: source: synthetic peptide, bought: Caslo ApS (Denmark)
Kd [2]: 28.4 µM | Kd [3]: 80 µM | Kd [4]: 28.7 µM | Kd [5]: 39.4 µM | Kd [6]: 88 µM | Kd [7]: 111 µM | Kd (UBXD1-PUB (150–264) [8]): 13.8 µM | Kd [9]: 141 µM | Kd [10]: 8.3 µM | Kd [11]: 64.1 µM | Kd [12]: 280 µM | Kd [13]: 53 µM | Kd [14]: 49.3 µM | Kd [15]: 17.7 µM | Kd [16]: 25.3 µM
